Source: US5643726, “Methods for modulating transcription from the amyloid β-protein precursor (APP) promoter” (The General Hospital Corporation, dated 1996)

Tests used:
[1] = biological target: upstream stimulatory factor (USF), 43 kDa form (Homo sapiens (Human), UniProt P22415); test: cell-based or functional assay
[2] = biological target: T1, USF (43 kDa, recombinant USF) (UniProt P22415 P22415:1-310); test: competition; cold competitor up to 50-fold failed to diminish complex on DK-1; conditions: tags: expressed in and purified from bacteria; chain copies: 2
Protocol: (§1) EMSA was carried out as in Miner et al. (Miner, L. L. et al., *J. Neurosci. Res.* 33:10–18 (1992)). 1 ng of DNA fragment was incubated with 1 µg nuclear extract for 20 rain at 20° C., unless otherwise indicated. After incubation, the binding mixture was resolved on 6% polyacrylamide gels containing 4% glycerol in 25 mM Tris-borate (pH 8.3), 0.5 mM EDTA. Gels were dried and exposed to Kodak X-OMAT AR film with intensifying screen.
(§2) The amount of complex formed decreased with increasing amounts of cold fragment.

[3] = biological target: T1, USF (43 kDa, recombinant USF); test: EMSA; visible complex with 350 pg rUSF; competed by cold DK-1; conditions: tags: expressed in and purified from bacteria; chain copies: 2; label: 32P
Protocol: as §1, §2

T1 sequence (P22415 whole entry, the tested form may be a part, one chain of several): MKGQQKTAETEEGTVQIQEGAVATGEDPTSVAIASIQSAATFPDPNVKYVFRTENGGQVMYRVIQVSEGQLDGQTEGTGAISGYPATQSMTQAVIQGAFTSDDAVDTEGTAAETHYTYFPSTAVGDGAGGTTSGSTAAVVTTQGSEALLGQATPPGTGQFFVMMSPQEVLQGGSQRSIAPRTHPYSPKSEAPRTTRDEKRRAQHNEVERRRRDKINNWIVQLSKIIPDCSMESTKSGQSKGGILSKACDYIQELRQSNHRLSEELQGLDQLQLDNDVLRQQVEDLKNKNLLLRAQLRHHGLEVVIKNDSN

Binder	relative luciferase units (USF activation of transcription from the APP promoter) [1] [fold]	further results
AP-1/AP-4 Random (dsDNA) DNA 1: GGGCCGGAATCGTGCTGTCGCCTGGCTCT DNA 2: AGAGCCAGGCGACAGCACGATTCCGGCCC	–	binding result [2]: no binding
DK-1 fragment (APP promoter -58 to -30, AP-1/AP-4) (dsDNA) DNA 1: GGGCCGGATCAGCTGACTCGCCTGGCTCT DNA 2: AGAGCCAGGCGAGTCAGCTGATCCGGCCC	–	binding result [3]: binds

Further lines, with some results ahead:

relative luciferase units (USF activation of transcription from the APP promoter) [1] [fold]	Binder	further results
~2	mouse amyloid precursor-like protein APLP1 (other) MGPTSPAARGQGRRWRPPLPLLLPLSLLLLRAQLAVGNLAVGSPSAAEAPGSAQVAGLCGRLTLHRDLRTGRWEPDPQRSRRCLLDPQRVLEYCRQMYPELHIARVEQAAQAIPMERWCGGTRSGRCAHPHHEVVPFHCLPGEFVSEALLVPEGCRFLHQERMDQCESSTRRHQEAQEACSSQGLILHGSGMLLPCGSDRFRGVEYVCCPPPATPNPSGMAAGDPSTRSWPLGGRAEGGEDEEEVESFPQPVDDYFVEPPQAEEEEEEEEERAPPPSSHTPVMVSRVTPTPRPTDGVDVYFGMPGEIGEHEGFLRAKMDLEERRMRQINEVMREWAMADSQSKNLPKADRQALNEHFQSILQTLEEQVSGERQRLVETHATRVIALINDQRRAALEGFLAALQGDPPQAERVLMALRRYLRAEQKEQRHTLRHYQHVAAVDPEKAQQMRFQVQTHLQVIEERMNQSLGLLDQNPHLAQELRPQIQELLLAEHLGPSELDASVPGSSSEDKGSLQPPESKDDPPVTLPKGSTDQESSSSGREKLTPLEQYEQKVNASAPRGFPFHSSDIQRDELAPSGTGVSREALSGLLIMGAGGGSLIVLSLLLLRKKKPYGTISHGVVEVDPMLTLEEQQLRELQRHGYENPTYRFLEERP	–
~2	human amyloid precursor-like protein APLP2 (other) GYIEALAAAAGTGFAVAEPQIAMFCGKLNMHVNIQTGKWEPDPTGTKSCFRTKEEVLQYCQEMYPELQITNVMEANQRVSIDNWCRRDKKQCKSRFVTPFKCLVGEFVSDVLLVPEKCRFFHKERMEVCENHQHWHTVVKEACLTQGMTLYSYGMLLPCGVDQFHGTEYVCCPQTKDYWSVSKEEEEEEDEEEEEEEDEEEDYDVYKSEFPTEADLEDFTEAAVDEDDEDEEEGEEVVEDRDYYYDTFKGDDYNEENPTEPGSDGTMSDKEITHDVKVPPTPLPTNDVDVYFETSADDNEHARFQKAEKEQLIERHRNRMDRVKKEWEEAELQAKNLPKAERQTLIQHFQAMVKALEKAEAASEKQQLVETHLARVEAMLNDRRMALENYLAALQRSDPPRPHRILQPLRRYVRAENKDRLHTIRHYQHVLAVDPEKAAQMKSQVMTHLHVIEERRNQSLSLLYKDPYVARIQENDELLQAERADMDQFTASISETPVDVRVSSEESEEIPPFHPFHPFPALPENEDTQPELYHPMKKGSGVGEQDGGLIGAEEKVINSKNKVDENMVIDETLDKEMIFNAERVGGLEERESVGPLREDFSLSSSASIGLLVIAVAIATVIVISLVMLRKRQVCTISHGIVEVDPMLTPEERHLNKMQNHGYENPTYKTLEQMQI	–
